Here are results for five molecules from US20110097262A1 (PIERRE FABRE MEDICAMENT, published 2011).

The assay concerns the target C-Met-Rluc (R. reniformis, UniProt P08581 25-1390; P27652 1-311). Put plainly: cell-based or functional assay.

C-Met-Rluc, sequence (P08581 other isoform, or with tags, fused parts or gaps): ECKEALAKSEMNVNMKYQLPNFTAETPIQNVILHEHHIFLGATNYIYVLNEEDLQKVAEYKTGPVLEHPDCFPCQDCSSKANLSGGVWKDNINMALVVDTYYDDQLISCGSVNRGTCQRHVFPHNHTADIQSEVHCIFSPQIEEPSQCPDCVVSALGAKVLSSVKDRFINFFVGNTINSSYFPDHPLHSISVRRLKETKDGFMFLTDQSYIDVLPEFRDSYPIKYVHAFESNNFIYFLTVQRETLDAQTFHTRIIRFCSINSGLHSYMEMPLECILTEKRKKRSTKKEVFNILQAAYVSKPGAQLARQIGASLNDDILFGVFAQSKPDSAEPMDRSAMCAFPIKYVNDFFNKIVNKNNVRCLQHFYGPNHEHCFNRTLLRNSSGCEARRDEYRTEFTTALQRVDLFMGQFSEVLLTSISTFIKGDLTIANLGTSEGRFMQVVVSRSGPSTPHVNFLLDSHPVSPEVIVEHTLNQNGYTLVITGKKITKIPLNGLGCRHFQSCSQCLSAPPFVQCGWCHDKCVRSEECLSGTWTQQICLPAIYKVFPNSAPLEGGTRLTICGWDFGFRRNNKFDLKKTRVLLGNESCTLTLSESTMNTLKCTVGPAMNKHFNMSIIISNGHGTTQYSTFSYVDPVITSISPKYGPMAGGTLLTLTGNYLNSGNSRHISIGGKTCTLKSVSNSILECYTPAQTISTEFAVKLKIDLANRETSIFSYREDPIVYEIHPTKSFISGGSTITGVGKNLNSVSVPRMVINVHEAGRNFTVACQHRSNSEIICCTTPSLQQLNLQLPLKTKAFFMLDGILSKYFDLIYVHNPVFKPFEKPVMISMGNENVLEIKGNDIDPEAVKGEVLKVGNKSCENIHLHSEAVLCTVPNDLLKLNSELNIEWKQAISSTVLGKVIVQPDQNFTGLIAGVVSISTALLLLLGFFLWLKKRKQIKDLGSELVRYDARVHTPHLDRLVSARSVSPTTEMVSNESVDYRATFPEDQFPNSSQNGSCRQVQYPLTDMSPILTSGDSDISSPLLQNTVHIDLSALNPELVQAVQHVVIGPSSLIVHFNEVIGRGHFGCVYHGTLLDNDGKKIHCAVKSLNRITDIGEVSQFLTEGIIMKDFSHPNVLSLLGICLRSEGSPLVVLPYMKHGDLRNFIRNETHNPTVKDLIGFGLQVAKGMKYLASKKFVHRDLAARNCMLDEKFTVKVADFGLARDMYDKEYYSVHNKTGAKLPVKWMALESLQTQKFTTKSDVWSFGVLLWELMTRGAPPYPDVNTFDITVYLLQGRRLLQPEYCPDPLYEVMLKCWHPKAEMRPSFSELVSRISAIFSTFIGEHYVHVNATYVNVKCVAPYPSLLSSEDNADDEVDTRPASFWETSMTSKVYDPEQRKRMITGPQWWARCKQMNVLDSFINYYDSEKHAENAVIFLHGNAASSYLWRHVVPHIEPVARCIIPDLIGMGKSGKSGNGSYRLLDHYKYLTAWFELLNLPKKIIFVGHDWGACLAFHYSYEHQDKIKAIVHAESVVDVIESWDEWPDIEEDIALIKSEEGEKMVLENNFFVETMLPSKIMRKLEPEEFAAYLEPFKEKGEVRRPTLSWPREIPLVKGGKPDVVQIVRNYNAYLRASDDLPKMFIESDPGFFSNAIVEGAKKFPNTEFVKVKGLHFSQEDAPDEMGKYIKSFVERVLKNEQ

B1: [224G11] [MHchim] (antibody, human IgG1, V domains shown)
VH: EVQLQQSGPELVKPGASVKISCKTSGYIFTAYTMHWVRQSLGESLDWIGGIKPNNGLANYNQKFKGKATLTVDKSSSTAYMDLRSLTSEDSAVYYCARSEITTEFDYWGQGTALTVSS
VL: DIVLTQSPASLAVSLGQRATISCRASESVDSYANSFMHWYQQKPGQPPKLLIYRASNLESGIPARFSGSGSRTDFTLTINPVEADDVATYYCQQSKEDPLTFGSGTKLEMKR
In the case of B1, the “BRET signal by Mab alone, c-Met activation model” value (“BRET signal by Mab alone” for short) is 5.1%.

B2: [224G11] [MUP9Hchim] (antibody, human IgG1, V domains shown)
VH: B1 VH
VL: B1 VL
As to B2, the “BRET signal by Mab alone” value worked out at 7.6%.

B3: [224G11] [MMCHchim] (antibody, human IgG1, V domains shown)
VH: B1 VH
VL: B1 VL
Take B3: the “BRET signal by Mab alone” value was -2%.

B4: [224G11][TH7chim] (antibody, human IgG1)
heavy: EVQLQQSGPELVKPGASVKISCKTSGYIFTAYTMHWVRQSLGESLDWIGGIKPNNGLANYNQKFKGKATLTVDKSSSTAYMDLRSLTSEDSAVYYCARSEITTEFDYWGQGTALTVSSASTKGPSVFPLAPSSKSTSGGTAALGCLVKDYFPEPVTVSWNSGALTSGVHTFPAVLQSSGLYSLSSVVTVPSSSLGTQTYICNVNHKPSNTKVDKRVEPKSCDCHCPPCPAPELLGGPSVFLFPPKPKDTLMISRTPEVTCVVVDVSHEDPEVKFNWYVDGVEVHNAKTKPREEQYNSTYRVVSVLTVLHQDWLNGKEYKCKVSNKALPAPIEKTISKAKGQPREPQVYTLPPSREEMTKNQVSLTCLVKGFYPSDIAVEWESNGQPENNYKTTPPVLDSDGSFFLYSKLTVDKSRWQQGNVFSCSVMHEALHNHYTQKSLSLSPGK
light: DIVLTQSPASLAVSLGQRATISCRASESVDSYANSFMHWYQQKPGQPPKLLIYRASNLESGIPARFSGSGSRTDFTLTINPVEADDVATYYCQQSKEDPLTFGSGTKLEMKRTVAAPSVFIFPPSDEQLKSGTASVVCLLNNFYPREAKVQWKVDNALQSGNSQESVTEQDSKDSTYSLSSTLTLSKADYEKHKVYACEVTHQGLSSPVTKSFNRGEC
B4: the “BRET signal by Mab alone” value was -6.9%.

B5: [224G11] [IgG2chim] (antibody)
heavy: EVQLQQSGPELVKPGASVKISCKTSGYIFTAYTMHWVRQSLGESLDWIGGIKPNNGLANYNQKFKGKATLTVDKSSSTAYMDLRSLTSEDSAVYYCARSEITTEFDYWGQGTALTVSSASTKGPSVFPLAPCSRSTSESTAALGCLVKDYFPEPVTVSWNSGALTSGVHTFPAVLQSSGLYSLSSVVTVPSSNFGTQTYTCNVDHKPSNTKVDKTVERKCCVECPPCPAPPVAGPSVFLFPPKPKDTLMISRTPEVTCVVVDVSHEDPEVQFNWYVDGVEVHNAKTKPREEQFNSTFRVVSVLTVVHQDWLNGKEYKCKVSNKGLPAPIEKTISKTKGQPREPQVYTLPPSREEMTKNQVSLTCLVKGFYPSDIAVEWESNGQPENNYKTTPPMLDSDGSFFLYSKLTVDKSRWQQGNVFSCSVMHEALHNHYTQKSLSLSPG
light: B4 light
With B5, the “inhibition of HGF induced BRET signal, c-Met activation model” value stood at 66.3%.
